In the nanobody polyreactivity screen of Harvey et al. (2022):

Test: yeast display, Sf9 membrane polyspecificity reagent, FACS + sequencing; frameworks hold sequencing errors
In short: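 Nanobodies from a synthetic yeast display library (Saccharomyces cerevisiae BJ5465), induced 36–48 hours with galactose, were stained 1 hour at 4 °C with 10% biotinylated, detergent-solubilized Sf9 membrane reagent, enriched on streptavidin microbeads, then FACS-sorted. Anti-HA (expression) and streptavidin (reagent binding) fluorescence set low and high (top ~1%) gates. Polyreactivity labels come from the gate of origin. Genes were colony-PCR amplified, MiSeq 2 × 250 sequenced and filtered by CDR length.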

Row | Sequence | polyreactivity (PSR sort gate)
1 | QVQLVESGGGLVQAGGSLRLICAASGSTLKYYAMGWYRQAPGKERELVARITRSSGSTYYADSVKGRFTISRDNAKNTVYLQMNSLKPEDTAVYYCNAYGRFGLYDYWGQGTQVTVSS | high polyreactivity
2 | QVQLVESGGGLVQAGGSLRLICAASGSTLVVNAMGWYRQAPGKERELVAAITSGGSTNYADSVKGRFTISRDNAKNTVYLQMNSLKPEDTAVYYCNAERGRSFWWAYDYWGQGTQVTVSS | low polyreactivity
3 | QVQLVESGGGLVQAGGSLRLICAASGTIFDIYAMGWYRQAPGKERELVAAISLSAGSTYYADSVKGRFTISRDNAKNTVYLQMNSLKPEDTAGYYFNADGWYGYWGQGTQVTVSS | low polyreactivity
4 | QVQLVESGGGLVQAGGSLRLICAASGTIFITNAMGWYRPAPGKERELVAAISGRGGSTYYADSVKGRFTISRDNAKNTVYLQMNSLKPEDTAVYYCNAYSYRVSGYDYWGQGTQVTVSS | high polyreactivity
5 | QVQLVESGGGLVQAGGSLRLICAASGYIFAYNTMGWYRQAPGKERELVAAISRSGGSTYYADSVKGRFTISRDNAKNTVYLQMNSLKPEDTAVYSCAARYAPLDFRFDYWGQGTQVTVSS | high polyreactivity
6 | QVQLVESGGGLVQAGGSLRLICAASGYTFAFYAMGWYRQAPGKEREFVASINWNGSSTYADSVKGRFTISRDNAKNTVYLQMNSLKPEDTAVYYCNADYNRNSVQFSLYDYWGQGTQVTVSS | low polyreactivity
7 | QVQLVESGGGLVQAGGSLRLICAASGYTFGHYVMGWYRQAPGKERELGAAISRGGGSTSYADSVKGRFTISRDNAKNTVYLQMNSLKPEDTAVYYCAKKSTYFKWSRMYWGQGTQVTVSS | high polyreactivity
8 | QVQLVESGGGLVQAGGSLRLICAASGYTFGYYAMGWYRQAPGKERELVAAISWRGARTNYADSVEGRFTISRDNAKNTVYLQMNSLKPEDTAVYYCAARGGYYQGRYKYGYWGQGTQVTVSS | high polyreactivity
9 | QVQLVESGGGLVQAGGSLRLICAASGYTFPYNVMGWYRQAQGKERELVAAITSSGGSTYYADSVKGRFTISRDNAKTTVYLQMNSLKPEDTAVYYCNASPSSSLFDYLGQGTQVTVSS | low polyreactivity
10 | QVQLVESGGGLVQAGGSLRLICAASRSNFFPYAMGWYRQAPGKERELVDTISGSTGRTYYADSVKGRFTISRDNAKNTVYLQMNSLKPQDTAVYYCATSVGYYLAPIKYDYWGQRTQVTVSS | low polyreactivity
11 | QVQLVESGGGLVQAGGSLRLICAASVSTFRDHAMGWYRQAPAKERDLVAAIDIDSSTYYADSVKGRFTISLDNAKNSVYLHMNSLKPEDTAVYYCNKDASGGTTTEVDYWGQGTQVTVSS | low polyreactivity
12 | QVQLVESGGGLVQAGGSLRLICAATGLIFPLYDMGWYRQAAGKERELVAAITLGGGGTYYADSVKGRFTISRDNAKNTVYLQMNSLKPEDTAVYYCNADYDIAAQLRTYITFDYWGQGTQVTVSS | low polyreactivity
13 | QVQLVESGGGLVQAGGSLRLICASSGSILRYNTMVWYRQAPGKERELVAAITYRGGSTYYADSVKGRFTISRDNAKNTVYLQMNSLKPEDTAVYYCNAARWWKTPDDYWGQGNQVTVSS | high polyreactivity
14 | QVQLVESGGGLVQAGGSLRLICDASGFTFSPNAMGWYRQAPGKERELVAAIDWSGDRTYYADSVKGRFTISRDNAKNTVYLQMNSLKPEDTAVYYCNDVRRSPGDYSYYYWGQGTQVTVSS | low polyreactivity
15 | QVQLVESGGGLVQAGGSLRLICDASGSTFYRYAMGWYRQAPGKERELVAAISRSGGRTYYADSVKGRFTISRDNAKNTVYLQMNSLKPEDTADYYCAADVGPKQDATHDYWGQGTQLTVSS | high polyreactivity
16 | QVQLVESGGGLVQAGGSLRLICPASGRIFRYYAMGWYRQARGKERELVAGITTGGGSTYYADSVKGRFTISRDNAKNTVFLQMNSLKPEDTAVYYCAARYYTTYYCGQGTQVTVSS | high polyreactivity
17 | QVQLVESGGGLVQAGGSLRLICVASGRIFLTYAMGWYRQAPGKERELVAAISYSGASTYYADSVKGRFTISRDNAKNTVYLQMNSLKPEDTAVYYCAKDGTQYERQDPAYGYWGQGTQVTVSS | high polyreactivity
18 | QVQLVESGGGLVQAGGSLRLISAASGRTFWTNAMGWYRQAPGKEREFVAAISWRGASTFYADSVKGRFTISRDNAKNTVYLQMNSLKPEDTAVYYCAAQSRTRSFYGKYDSWGQGTQVTVSS | low polyreactivity
19 | QVQLVESGGGLVQAGGSLRLISAASGRTFYSYAMGWYRQATGKERELVASISSGGGTNYADSVKGRFTSSRDNAMNTVYLQMNSLKPEDTAVYYGAAKYWFFYPYDYWGQGTQVTVSS | low polyreactivity
20 | QVQLVESGGGLVQAGGSLRLISAASGSIFVGNAMGWYRQSPGKERELVAAISRSGGRTYYADSVKGRFTISRDNAKNTVYLQMNSLKPEDTAVYYCNAYGWEQRQMDSWGQGTQVTVSS | high polyreactivity
21 | QVQLVESGGGLVQAGGSLRLNCAASGITYTQYAMGWYRQAPGKERELVAAISKRGGRTYYADSVKGRFTISRDNAKNTVYLQMNCLIPEDTAVYYCATVPYGEVDYWGQGTQVTVSS | high polyreactivity
22 | QVQLVESGGGLVQAGGSLRLNCAASGSTFARNAMGWYRQAAGKERELVAAISGSGGSTYYADSVKGRFTISRDNAKNTVYLQMNSLKPEDTAVYYCAAARRYYAYRYDYWGQGTQVTVSS | high polyreactivity

Row | Sequence | polyreactivity (PSR sort gate)
23 | QVQLVESGGGLVQAGGSLRLNCAASGSTFPKYAMGWYRQAPGKERELVAAISWSGDSTYYADSVKGRFTISRDNAKNSVYLKMNRLKPEDTAFYYCAAYNFIHAGPWVYEYWGQCTQVTVSS | low polyreactivity
24 | QVQLVESGGGLVQAGGSLRLRCAASGFIFARYAMGWYRQAPGKERELVAAITWSGDSTYYAYSVKGRFTISRDNAKYTVYLQMNSLKPEDTAVYYCYPVSGYAKYDYWGQGTQVTVSS | low polyreactivity
25 | QVQLVESGGGLVQAGGSLRLRCAASGFIFARYAMGWYRQAPGKERELVASITCRGTSTRYADSVKGRFTISRDNAKNTVYLEMNSLKPEDTAVYYCNAARLSYSWVPSEMDFWGQGTQVTVSS | high polyreactivity
26 | QVQLVESGGGLVQAGGSLRLRCAASGFIFGPNAMGWYRQAPGKEREFDAAINWSGGTTYYADSVKGRFTISRDNAKNTVYLQMNSLKPEDTAVYYCAASLYSDVAAVATYGYYWGQGTQVTVSS | low polyreactivity
27 | QVQLVESGGGLVQAGGSLRLRCAASGFIFNYYALGWYRQAPGKERELVAAINSGGNTYYADSVKGRFTISRDNAKNPVYIKMNTLKPEDTAVYYCNRDPESVGYDYWGQGTQVTVSS | low polyreactivity
28 | QVQLVESGGGLVQAGGSLRLRCAASGFPFDSYAMGWYRQAPGKERELVAAITSDGSTYYADSVKGRFTISRDNAKNTVYVLMNSLKPEDTAVYYCAADGISLYATAYDYWGQGTQVSVSS | low polyreactivity
29 | QVQLVESGGGLVQAGGSLRLRCAASGFTFGRYAMGGYRQAPGKERELVAGITSGGSTYYADSVKGRFTISLDNAKNTVYLQMNSLKPEDTAVYYCITKVISRTSERRGNGFTRYDYWGQGTQVTVSS | low polyreactivity
30 | QVQLVESGGGLVQAGGSLRLRCAASGFTFTKNAIGWYRQAPGKERELVAAITRRGSSTYYADSVKGRFTISRDNAKNTVYIQMNSLKPEDTAVYYCNADYETISGDYWGQGTQVTVSS | high polyreactivity
31 | QVQLVESGGGLVQAGGSLRLRCAASGGIFGLYTMGWYRPAPGKERELVAGISKRGTRTRYADSVKGRFTISRDNAKNTVYIQMTSLKPEDTAVYYCNADYYVSKLDYWGQGTQVTVSS | high polyreactivity
32 | QVQLVESGGGLVQAGGSLRLRCAASGGTFSGYTMGWYRQAPGKERELVAAINWSGGRTYYADSVKGRFTISRDNAKNTVYLQMNSLKPEDTAVYYCNKYGLYYREYDYWGQGTQVTVSS | high polyreactivity
33 | QVQLVESGGGLVQAGGSLRLRCAASGITFSGNAMGWYRQAPRKERELVAAITFSGGRTYYADSVKGSFTISRDNAKNTVYLQMNSLKPEDSAVYYCAAETPRGRWLGDYWGQGTQVTVSS | low polyreactivity
34 | QVQLVESGGGLVQAGGSLRLRCAASGITFTINAMGWYRQAPGTEGELVATISINGGSTNYADSVKGRFTISRDNAKNTVYLQMNSLKPEDTAVYYCAADALGPFRFQFFYTTAYVYWGQGTQVTVSS | low polyreactivity
35 | QVQLVESGGGLVQAGGSLRLRCAASGKTFSWYALGWYRLAPGKERELVAVITSGGSTNYADSVKWRFTISRDNAKNTVYLQMNSLKPEDTAVYYCNRRPYGFEEFDYWGQGTQVTVSS | low polyreactivity
36 | QVQLVESGGGLVQAGGSLRLRCAASGLIFGTYAMGWYRQAPGKERELVATISQIGGSTYYADSVKGRFTISRDNAKNTVYLEMNSLKPEETAVYYCAVDGGEFSSYGYWGQGTQVTVSS | low polyreactivity
37 | QVQLVESGGGLVQAGGSLRLRCAASGLIFPVYAMGWYRQEPGKEREFVAAITYDGGNTYYADSVKGRFTISRDNAKNTVYLQMNSLKPEDTAVYYCNRRYPGPDSFEHYYYYRYDYWGQGTQVTVSS | low polyreactivity
38 | QVQLVESGGGLVQAGGSLRLRCAASGLTVRNYAMGWYRQAPRKERDLVAAISSGGGSTYYADSVKGRFTISRDNAKNTVYLQMNSLKPEDTAVYYCAAKRHTSLYVYYYWGQGTQVTVSS | high polyreactivity
39 | QVQLVESGGGLVQAGGSLRLRCAASGNIFDRYAMGWYRQAPGKERELVAAISWSDGTTYYADSVKGRFTISRDNAKNTVYLQMNTLKPEDTAVYNCAGVYTYPLGYYHYTYDDWGQGTQVSVSS | low polyreactivity
40 | QVQLVESGGGLVQAGGSLRLRCAASGRIFDWYALGWNRQAPGQERELVAAITSGGSTYYADSVKGRFTISRDNAKNTVYLQMNSLKTEDTAVYYCAADLYYWGDSDYWGQGTQVTVSS | low polyreactivity
41 | QVQLVESGGGLVQAGGSLRLRCAASGRIFGRYAMGWYRQAPGKERELVASISRGGSTNYADSVKGRFTISLDNAKNTVYLQMNSLKPEDTAVFYFAKSGGVGGDDRVGSWGQGTQVTVSS | low polyreactivity
42 | QVQLVESGGGLVQAGGSLRLRCAASGRIFSTYAMGWYRQAPGKERALVAAINKIGGSTYYADSVKGRFTISRDNAKNTVYLQMNSLKPEDTAVYYCAADAPFYPVRRYYYWGQGTQVTVSS | low polyreactivity
43 | QVQLVESGGGLVQAGGSLRLRCAASGRIFTYYAMGWYRPAPGKERELVAAISWSGGSTYYADSVKGRFTISRDNAKNTVYLQMNSLKPEDTAVYYCNAVYPSVYPVSTRYYWGQGTQVTVSS | high polyreactivity
